Test results from patent US20200024322A1 (Eli Lilly, published 2020).
Numbered stars: 1 amine (or outer) side, 2 acyl side, 3 side chain; on linkers, the order of the positions; unused ones are H or OH. Square brackets hold non-standard residues; d marks the D form. Side chains are listed from the residue outwards. Ends that are not written are not given here. * marks the point of attachment. C20 diacid = O=C(O)CCCCCCCCCCCCCCCCCCC(=O)*; αMePhe(2-F) = C[C@](N)(Cc1ccccc1F)C(=O)O; γGlu = O=C(O)[C@H](CCC(=O)[*:2])N[*:1]; Desaminohistidyl = O=C(CCc1c[nH]cn1)*; AEEA = NCCOCCOCC(=O)O; Aib = CC(C)(N)C(=O)O

What was measured:
human GIP receptor = molecular target: T1, human GIP receptor (human, UniProt P48546 22-466); assay: SPA, [125I]-GIP displacement, hGIPR membranes
T1 construct: whole, on cells; Used as crude membranes of stably transfected CHO cells; also called hGIPR
T1 sequence (looked up): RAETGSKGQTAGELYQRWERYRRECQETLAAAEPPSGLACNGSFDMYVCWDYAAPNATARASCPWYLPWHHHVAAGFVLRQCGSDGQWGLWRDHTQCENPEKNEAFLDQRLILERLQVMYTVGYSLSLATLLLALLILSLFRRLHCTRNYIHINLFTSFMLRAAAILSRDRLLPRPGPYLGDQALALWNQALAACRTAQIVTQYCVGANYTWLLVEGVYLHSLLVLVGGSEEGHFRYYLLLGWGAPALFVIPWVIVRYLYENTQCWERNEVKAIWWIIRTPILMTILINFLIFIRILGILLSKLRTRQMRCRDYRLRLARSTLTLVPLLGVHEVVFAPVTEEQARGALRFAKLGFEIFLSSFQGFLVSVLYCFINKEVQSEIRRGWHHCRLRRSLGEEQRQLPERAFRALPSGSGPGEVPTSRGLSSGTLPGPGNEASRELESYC

human GLP-1 receptor = molecular target: T2, human GLP-1 receptor (human, UniProt P43220 24-463); assay: SPA, [125I]-GLP-1 displacement, hGLP-1R membranes
T2 construct: whole, on cells; Used as crude membranes of stably transfected HEK293 cells; also called hGLP1R; hGLP-1R

human glucagon receptor = molecular target: T3, human glucagon receptor (human, UniProt P47871 26-477); assay: SPA, [125I]-Gcg displacement, hGcgR membranes
T3 construct: whole, on cells; Used as crude membranes of stably transfected HEK293 cells; also called hGcgR; hGLcgR
T3 sequence (P47871 26-477): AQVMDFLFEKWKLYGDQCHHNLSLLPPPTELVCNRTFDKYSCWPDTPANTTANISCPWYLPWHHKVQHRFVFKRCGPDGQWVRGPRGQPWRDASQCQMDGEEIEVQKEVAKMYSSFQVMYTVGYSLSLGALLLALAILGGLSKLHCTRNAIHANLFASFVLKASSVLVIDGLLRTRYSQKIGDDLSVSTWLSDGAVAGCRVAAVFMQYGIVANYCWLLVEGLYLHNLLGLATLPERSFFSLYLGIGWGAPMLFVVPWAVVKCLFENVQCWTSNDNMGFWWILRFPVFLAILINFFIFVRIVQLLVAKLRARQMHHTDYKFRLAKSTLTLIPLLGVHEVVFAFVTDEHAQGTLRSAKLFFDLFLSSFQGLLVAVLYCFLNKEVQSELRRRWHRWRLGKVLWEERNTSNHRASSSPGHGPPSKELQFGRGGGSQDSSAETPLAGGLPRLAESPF

B1: Example 106 (peptide)
peptide: [Desaminohistidyl][Aib]EGTFTSDYSILLDKK([AEEA-AEEA-γGlu-C20 diacid])AQ[Aib]AFIEYLIEGGPSSGAPPPS-NH2
SMILES: CC[C@H](C)[C@H](NC(=O)[C@H](CC(C)C)NC(=O)[C@H](Cc1ccc(O)cc1)NC(=O)[C@H](CCC(=O)O)NC(=O)[C@@H](NC(=O)[C@H](Cc1ccccc1)NC(=O)[C@H](C)NC(=O)C(C)(C)NC(=O)[C@H](CCC(N)=O)NC(=O)[C@H](C)NC(=O)[C@H](CCCCNC(=O)COCCOCCNC(=O)COCCOCCNC(=O)CC[C@H](NC(=O)CCCCCCCCCCCCCCCCCCC(=O)O)C(=O)O)NC(=O)[C@H](CCCCN)NC(=O)[C@H](CC(=O)O)NC(=O)[C@H](CC(C)C)NC(=O)[C@H](CC(C)C)NC(=O)[C@@H](NC(=O)[C@H](CO)NC(=O)[C@H](Cc1ccc(O)cc1)NC(=O)[C@H](CC(=O)O)NC(=O)[C@H](CO)NC(=O)[C@@H](NC(=O)[C@H](Cc1ccccc1)NC(=O)[C@@H](NC(=O)CNC(=O)[C@H](CCC(=O)O)NC(=O)C(C)(C)NC(=O)CCc1c[nH]cn1)[C@@H](C)O)[C@@H](C)O)[C@@H](C)CC)[C@@H](C)CC)C(=O)N[C@@H](CCC(=O)O)C(=O)NCC(=O)NCC(=O)N1CCC[C@H]1C(=O)N[C@@H](CO)C(=O)N[C@@H](CO)C(=O)NCC(=O)N[C@@H](C)C(=O)N1CCC[C@H]1C(=O)N1CCC[C@H]1C(=O)N1CCC[C@H]1C(=O)N[C@@H](CO)C(N)=O
Human GIP receptor
  Ki: 0.179 nM
Human GLP-1 receptor
  Ki: 1.2 nM
Human glucagon receptor
  Ki: 515 nM

B2: Example 101 (peptide)
peptide: Y[Aib]EGT[αMePhe(2-F)]TSDYSI[Aib]LDEK([AEEA-AEEA-γGlu-C20 diacid])AQ[Aib]AFIEYLIEGG-NH2
modifications: N-terminus assumed
SMILES: CC[C@H](C)[C@H](NC(=O)[C@H](CC(C)C)NC(=O)[C@H](Cc1ccc(O)cc1)NC(=O)[C@H](CCC(=O)O)NC(=O)[C@@H](NC(=O)[C@H](Cc1ccccc1)NC(=O)[C@H](C)NC(=O)C(C)(C)NC(=O)[C@H](CCC(N)=O)NC(=O)[C@H](C)NC(=O)[C@H](CCCCNC(=O)COCCOCCNC(=O)COCCOCCNC(=O)CC[C@H](NC(=O)CCCCCCCCCCCCCCCCCCC(=O)O)C(=O)O)NC(=O)[C@H](CCC(=O)O)NC(=O)[C@H](CC(=O)O)NC(=O)[C@H](CC(C)C)NC(=O)C(C)(C)NC(=O)[C@@H](NC(=O)[C@H](CO)NC(=O)[C@H](Cc1ccc(O)cc1)NC(=O)[C@H](CC(=O)O)NC(=O)[C@H](CO)NC(=O)[C@@H](NC(=O)[C@](C)(Cc1ccccc1F)NC(=O)[C@@H](NC(=O)CNC(=O)[C@H](CCC(=O)O)NC(=O)C(C)(C)NC(=O)[C@@H](N)Cc1ccc(O)cc1)[C@@H](C)O)[C@@H](C)O)[C@@H](C)CC)[C@@H](C)CC)C(=O)N[C@@H](CCC(=O)O)C(=O)NCC(=O)NCC(N)=O
Human GIP receptor
  Ki: 0.0953 nM
Human GLP-1 receptor
  Ki: 8.1 nM
Human glucagon receptor
  Ki: 117 nM

## [Desaminohistidyl][Aib]EGTFTSDYSILLDKK([AEEA-AEEA-γGlu-C20 diacid])AQ[Aib]AFIEYLIEGGPSSGAPPPS-NH2 (also: reversed amide ψ[NHCO] between residues 1 and 2) [Example 105]
Human GIP receptor
  Ki: 0.119 nM
Human GLP-1 receptor
  Ki: 0.871 nM
Human glucagon receptor
  Ki: 20.4 nM

B3: Example 107 (peptide)
peptide: XXEGTFTSDYSILLDKKAQXAFIEYLIEGGPSSGAPPPS
modifications: DesTyr1; Aib2; K17((2-[2-(2-Amino-ethoxy)-ethoxy]-acetyl)2-(γ-Glu)-CO-(CH2)18-CO2H); Aib20; C-terminal NH2
Human GIP receptor
  Ki: 0.0425 nM
Human GLP-1 receptor
  Ki: 0.867 nM
Human glucagon receptor
  Ki: 303 nM
